T1: human WISE (human, UniProt Q6X4U4 24-206)
T1 construct: Recombinant, made in E. coli or mammalian cells; biotinylated in the ELISAs, amine-coupled to CM5 in Biacore; also called huWise; huWISE
T1 sequence: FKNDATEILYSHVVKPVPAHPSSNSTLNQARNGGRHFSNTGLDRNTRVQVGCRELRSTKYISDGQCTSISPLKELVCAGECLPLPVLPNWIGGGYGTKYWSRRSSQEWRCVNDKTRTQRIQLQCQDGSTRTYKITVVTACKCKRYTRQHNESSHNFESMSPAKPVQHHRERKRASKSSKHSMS


Biological target: T1, human WISE
Assay: assay not specified (IgG2 from transient transfection)

Binder	binding result
light chain of SEQ ID NO: 108 paired with the heavy chain of SEQ ID NO: 24 (antibody, human IgG2, kappa, V domains shown) VH: QVQLVQSGAEVKKPGSSVKVSCKASGGTFSSTYISWVRQAPGQGLEWMGWIYAGTGGTRYNRKFTGRVTITADESTSTAYMELSSLRSEDTAVYYCAREGVDGWFTYWGQGTLVTVSS VL: DIQMTQSPSSLSASVGDRITISCQASQDIDNYLNWYQQKSGKAPKLLIYDAYNLKAGVPSRFRGSRSGTDFFLTISSLQPEDFATYYCLQQYRYPLTFGGGTKVEIKR	binds
light chain of SEQ ID NO: 116 paired with the heavy chain of SEQ ID NO: 24 (antibody, human IgG2, kappa, V domains shown) VH: QVQLVQSGAEVKKPGSSVKVSCKASGGTFSSTYISWVRQAPGQGLEWMGWIYAGTGGTRYNRKFTGRVTITADESTSTAYMELSSLRSEDTAVYYCAREGVDGWFTYWGQGTLVTVSS VL: DIQMTQSPSSLSASVGDRVTITCRASRDISVYVNWYQLKPGQAPRLLIYGASNLGFGVPSRFSGSGYGTDFALTISGLQPEDFATYSCQQSYSIPLTFGQGTRVDTKR	binds
light chain of SEQ ID NO: 110 paired with the heavy chain of SEQ ID NO: 24 (antibody, human IgG2, lambda, V domains shown) VH: QVQLVQSGAEVKKPGSSVKVSCKASGGTFSSTYISWVRQAPGQGLEWMGWIYAGTGGTRYNRKFTGRVTITADESTSTAYMELSSLRSEDTAVYYCAREGVDGWFTYWGQGTLVTVSS VL: QSVLTQPPSVSGAPGQRVTISCTGGSSNIGAGYEVHWYQLVPGRAPRFLIHGDNDRPSGVPDRFSASESGSSSFLAISGLQDDDEADYYCQSYDTSLSAWVFGGGTKLTVLG	binds
light chain of SEQ ID NO: 114 paired with the heavy chain of SEQ ID NO: 24 (antibody, human IgG2, kappa, V domains shown) VH: QVQLVQSGAEVKKPGSSVKVSCKASGGTFSSTYISWVRQAPGQGLEWMGWIYAGTGGTRYNRKFTGRVTITADESTSTAYMELSSLRSEDTAVYYCAREGVDGWFTYWGQGTLVTVSS VL: NIQMTQSPGTLSLSPGERATLSCRASQSVTGNHLAWYQQKPGQAPRVLMYDTSSRATGIPDRFSGSGSGTDFTLTISSLQPEDIATYYCQQFDNLPYTFGQGTKLEIKR	binds
light chain of SEQ ID NO: 118 paired with the heavy chain of SEQ ID NO: 24 (antibody, human IgG2, kappa, V domains shown) VH: QVQLVQSGAEVKKPGSSVKVSCKASGGTFSSTYISWVRQAPGQGLEWMGWIYAGTGGTRYNRKFTGRVTITADESTSTAYMELSSLRSEDTAVYYCAREGVDGWFTYWGQGTLVTVSS VL: DIQMTQSPDSLSASVGDRITISCQASQDIDNYLNWYQQRSGKAPKLLIYDAYNLKAGVPSRFRGSRSGTDFFLTISSLQPEDFGTYYCLQQSSYPLTFGQGTKVEIKR	binds

The next lines start with the values.

binding result	Binder
binds	light chain of SEQ ID NO: 112 paired with the heavy chain of SEQ ID NO: 24 (antibody, human IgG2, kappa, V domains shown) VH: QVQLVQSGAEVKKPGSSVKVSCKASGGTFSSTYISWVRQAPGQGLEWMGWIYAGTGGTRYNRKFTGRVTITADESTSTAYMELSSLRSEDTAVYYCAREGVDGWFTYWGQGTLVTVSS VL: DIQMTQSPGTLSLSPGERATLSCRTSQSVSSTSVAWYQQKPGQAPRLLMYDASSRAAGIPDRFSGSGSVTDFTLTISRLEPEDFATYYCQQSYSLPYTFGQGTKVEIKR
binds	light chain of SEQ ID NO: 106 paired with the heavy chain of SEQ ID NO: 24 (antibody, human IgG2, lambda, V domains shown) VH: QVQLVQSGAEVKKPGSSVKVSCKASGGTFSSTYISWVRQAPGQGLEWMGWIYAGTGGTRYNRKFTGRVTITADESTSTAYMELSSLRSEDTAVYYCAREGVDGWFTYWGQGTLVTVSS VL: NFMLTQPHSVSESPGKTITISCTRSSGSISSNYVQWYQQRPGSSPRIVMSEDDQRPSGVSDRFSGSIDISSNSAFLTISGLKPEDEGDYYCQSYDTDIPYVFGTGTKVTVLG
binds	light chain of SEQ ID NO: 120 paired with the heavy chain of SEQ ID NO: 24 (antibody, human IgG2, kappa, V domains shown) VH: QVQLVQSGAEVKKPGSSVKVSCKASGGTFSSTYISWVRQAPGQGLEWMGWIYAGTGGTRYNRKFTGRVTITADESTSTAYMELSSLRSEDTAVYYCAREGVDGWFTYWGQGTLVTVSS VL: DIQMTQSPATLSLSPGERATLSCRASRSVSSNLAWYQQKPGRAPRLLMFGASTRATGVPARFSGSGSGTEFTLTISSLQSEDVATYYCQHDNELPLTFGGGTKVELKR

Biological target: T1, human WISE
Assay: ELISA, antibody coated, biotinylated human WISE titrated

binding result	Binder
binds	Ab-D (antibody, V domains shown, Humanized Ab-C, human kappa / human IgG2) VH: QVQLVQSGAEVKKPGSSVKVSCKASGGTFSSTYISWVRQAPGQGLEWMGWIYAGTGGTRYNRKFTGRVTITADESTSTAYMELSSLRSEDTAVYYCAREGVDGWFTYWGQGTLVTVSS VL: DIQMTQSPSSLSASVGDRVTISCRASESVDNYGSSFMNWYQQKPGKAPKLLIYAASNQGSGVPSRFSGSGSGTDFTLTISSLQPEDFATYYCQQSKEVPYTFGQGTKLEIKR
binds	Ab-O (antibody, human IgG2, V domains shown, Human IgG2 heavy chain) VH: QVQLVQSGAEVKKPGSSVKVSCKASGGTFSSTYISWVRQAPGQGLEWMGWIYAGTGGTRYNRKFTGRVTITADESTSTAYMELSSLRSEDTAVYYCAREGVDGWFTYWGQGTLVTVSS VL: not shown
binds	Ab-B (antibody, V domains shown, Humanized Ab-A, human kappa / human IgG2) VH: QVQLVQSGAEVKKPGASVKVSCKASGYTFTTYGMSWVRQAPGQGLEWMGWINTYSGVPTYADDFKGRFVFSLDTSVSTAYLQINSLKAEDTAVYYCARGREYYYGSGIAFWGQGTLVTVSS VL: DVVMTQSPLSLPVTLGQPASISCRSSQSLEHSNGNTYLHWYLQKPGQSPQLLIYKVSNRFSGVPDRFSGSGSGTDFTLKISRVEAEDVGVYFCSQSTHVPLTFGGGTKVEIKR
binds	Ab-G (antibody, human IgG2, kappa, V domains shown, Humanized Ab-A, human kappa / human IgG2) VH: QVQLVQSGAEVKKPGASVKVSCKASGYTFTTYGMSWVKQAPGQGLEWMGWINTYSGVPTYADDFKGRFVFSLDTSVSTAYLQINSLKAEDTAVYFCVRGREYYYGSGIAFWGQGTLVTVSS VL: DVVMTQSPLSLPVTLGQPASISCRSSQSLEHSNGNTYLHWYLQKPGQSPQLLIYKVSNRFSGVPDRFSGSGSGTDFTLKISRVEAEDVGVYFCSQSTHVPLTFGGGTKVEIKR
